Data as given in patent publication CN114106160A.

Target: SARS-CoV-2 S1蛋白 (ACRO Biosystems) (SARS-CoV-2) (UniProt P0DTC2)
Experiment: BLI, biotinylated SARS-CoV-2 S1 on SA sensor, antibody as analyte, 1:1 model

## 人源抗体CR3022 (antibody)
  Kd: 0.0866 nM
  koff: 1.9e-05 s⁻¹
  kon: 220000 M⁻¹ s⁻¹
